Measured values reported in patent US20120294860A1 (TORAY INDUSTRIES, published 2012).

T1: human CAPRIN-1 protein expressed on the surface of human cancer cells (human, UniProt Q14444 2-709)
T1 sequence: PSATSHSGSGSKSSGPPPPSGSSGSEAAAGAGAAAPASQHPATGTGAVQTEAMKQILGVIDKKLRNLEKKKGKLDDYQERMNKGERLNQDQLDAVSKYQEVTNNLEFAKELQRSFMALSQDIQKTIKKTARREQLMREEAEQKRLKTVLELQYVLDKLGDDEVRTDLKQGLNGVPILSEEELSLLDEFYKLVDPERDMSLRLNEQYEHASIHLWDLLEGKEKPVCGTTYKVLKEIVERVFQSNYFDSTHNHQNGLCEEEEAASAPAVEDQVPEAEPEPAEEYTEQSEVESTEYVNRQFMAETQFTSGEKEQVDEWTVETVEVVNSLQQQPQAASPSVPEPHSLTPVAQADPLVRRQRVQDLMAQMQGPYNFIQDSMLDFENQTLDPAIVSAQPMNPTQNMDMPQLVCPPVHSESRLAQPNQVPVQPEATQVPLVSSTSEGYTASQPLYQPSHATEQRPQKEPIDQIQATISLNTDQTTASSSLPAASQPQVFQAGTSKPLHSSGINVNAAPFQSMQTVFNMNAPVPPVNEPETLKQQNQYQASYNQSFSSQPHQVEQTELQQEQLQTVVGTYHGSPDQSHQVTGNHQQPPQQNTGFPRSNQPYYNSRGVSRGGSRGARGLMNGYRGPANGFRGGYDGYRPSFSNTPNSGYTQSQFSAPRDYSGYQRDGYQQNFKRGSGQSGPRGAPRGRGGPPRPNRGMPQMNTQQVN


Biological target: T1, human CAPRIN-1 protein expressed on the …
Assay: cell-based or functional assay

Row | Binder | ADCC activity against MDA-MB-157 [%] | CDC activity against MDA-MB-231V [%]
1 | anti-CAPRIN-1 monoclonal antibody #1 (antibody, V domains shown) VH: EVQLHQFGAELVKPGASVKISCKASGYTFTDYNMDWVKQSHGKSLEWIGDINPNYDSTSYNQKFKGKATLTVDKSSSTAYMELRSLTSEDTAVYYCARSRSYDYEGFAYWGQGTLVTVSA VL: DIQMTQSPASLSASVGETVTITCRASGNIHNYLAWYQQKQGKSPQLLVYNAKTLADGVPSRFSGSGSGTQYSLKINSLQPEDFGSYYCQHFWSTLTFGAGTKLELKR | ≥ 20 | ≥ 30
2 | anti-CAPRIN-1 monoclonal antibody #3 (antibody, V domains shown) VH: EVQLHQFGAELVKPGASVKISCKASGYTFTDYNMDWVKQSHGKSLEWIGDINPNYDSTSYNQKFKGKATLTVDKSSSTAYMELRSLTSEDTAVYYCARSRSYDYEGFAYWGQGTLVTVSA VL: DIQLTQSPASLSASVGETVTITCRASGNIHNYLAWYQQKQGKSPQLLVYNAKTLADGVPSRFSGSGSGTQYSLKINSLQPEDFGSYYCQHFWSTLTFGGGTKLEIK | ≥ 20 | ≥ 30

Other lines, results leading:

Row | ADCC activity against MDA-MB-157 [%] | CDC activity against MDA-MB-231V [%] | Binder
3 | ≥ 20 | ≥ 30 | anti-CAPRIN-1 monoclonal antibody #7 (antibody, V domains shown) VH: LQESGAELARPGASVKLSCKASGYTFTSYWMQWVKQRPGQGLEWIGAIYPGDGDTRYTQKFKGKATLTADKSSSTAYMQLSSLASEDSAVYYCARGEYGNYFAYWGQGTTVTVSS VL: TSDASLGERVTITCKASQDINSYLSWFQQKPGKSPKTLIYRANRLVDGVPSRFSGSGSGQDYSLTISSLEYEDMGIYYCLQYDEFPLTFGGGTKLEIKQ
4 | ≥ 20 | ≥ 30 | anti-CAPRIN-1 monoclonal antibody #4 (antibody, V domains shown) VH: EVQLHQFGAELVKPGASVKISCKASGYTFTDYNMDWVKQSHGKSLEWIGDINPNYDSTSYNQKFKGKATLTVDKSSSTAYMELRSLTSEDTAVYYCARSRSYDYEGFAYWGQGTLVTVSA VL: SGDRVSLSCRASQSISNYLHWYQQKSHESPRLLIKYASQSISGIPSRFSGSGSGTDFTLSINSVETEDFGMYFCQQSNSWPYTFGAGTKLEIKQ
